# Data taken from paper PMC10066265, “Inhibitor-3 inhibits Protein Phosphatase 1 via a metal binding dynamic protein–protein interaction” (Nature Communications, 2023).
# “And” between values parts separate entries of the source, which are not always exact repeats. Equal entries are not always repeated.
# How the values were obtained:
# PP1α7-330 [1] = target: T1, PP1α7-330 (UniProt P62136 7-330); assay: SPR; His6-PP1 captured on a Ni-NTA sensor chip (NiHC200M), I3 variants injected; 25 °C; 20 mM Tris pH 8.0, 500 mM NaCl, 1 mM MnCl2, 0.5 mM TCEP, 0.05% Tween-20; one-to-one one-state or one-to-one two-state fit; conditions: both partners purified
# T1 construct: Protein Phosphatase 1 alpha catalytic subunit, residues 7-330; For SPR the His6-tagged PP1 was captured on a Ni-NTA chip; also called Protein Phosphatase 1; PP17-330; source: bacterial expression as previously described, purified (Ni-NTA, SEC)
# T1 sequence (P62136 7-330): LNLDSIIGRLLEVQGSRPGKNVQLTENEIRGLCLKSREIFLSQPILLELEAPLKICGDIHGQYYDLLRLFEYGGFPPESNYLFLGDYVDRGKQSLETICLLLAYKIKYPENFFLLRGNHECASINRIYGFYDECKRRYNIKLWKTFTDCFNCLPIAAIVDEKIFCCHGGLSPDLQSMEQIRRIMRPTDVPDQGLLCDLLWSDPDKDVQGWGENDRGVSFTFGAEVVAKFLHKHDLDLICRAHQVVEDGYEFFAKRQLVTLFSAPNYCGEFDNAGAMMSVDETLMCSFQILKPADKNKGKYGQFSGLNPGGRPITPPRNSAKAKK
# His6-PP1α_(7-330) [2] = target: T2, His6-PP1α_(7-330) (UniProt P62136 7-330); assay: cell-based or functional assay
# T2 sequence (P62136 7-330): as above
# His6-PP1α_(7-330) [3] = target: T2, His6-PP1α_(7-330); assay: SPR; His6-PP1 captured on a Ni-NTA sensorchip (NiHC200M), I3 variants injected; 25 °C; 20 mM Tris pH 8.0, 500 mM NaCl, 1 mM MnCl2, 0.5 mM TCEP, 0.05% Tween-20; one-to-one one state or one-to-one two state model; conditions: both partners purified
# PP1α_(7-330) = target: T3, PP1α_(7-330) (UniProt P62136 7-330); assay: SPR; His6-PP1 captured on Ni-NTA chip (NiHC200M), I3 variants injected; 25 °C; 20 mM Tris pH 8.0, 500 mM NaCl, 1 mM MnCl2, 0.5 mM TCEP, 0.05% Tween-20; one-to-one one state or one-to-one two state model (TraceDrawer); conditions: both partners purified
# T3 construct: Protein Phosphatase 1 alpha (PP1α), residues 7-330; His6-PP1 was captured on the Ni-NTA sensor chip as the SPR ligand; Mn2+ in all buffers; also called Protein Phosphatase 1; His6-PP1; source: E. coli, purified (Ni-NTA, SEC)
# T3 sequence (P62136 7-330): as above
# PP1α7-330 [4] = target: PP1α7-330 (UniProt P62136)
# PP1α7-330 (UniProt P62136), sequence (P62136 7-330): as above
# His6-PP1α_(7-330) C273S [5] = target: T4, His6-PP1α_(7-330) C273S (UniProt P62136 7-330, C273S); assay: cell-based or functional assay
# T4 sequence (P62136 7-330 C273S): as the sequence (P62136 7-330) above, with C267S counted along it
# His6-PP1α_(7-330) [6] = target: T2, His6-PP1α_(7-330); assay: SPR; His6-PP1 captured on a Ni-NTA sensorchip, I3_(27-68) injected; pH = 7.0 (Table 1); two state fit; conditions: both partners purified
# His6-PP1α_(7-330) [7] = target: T2, His6-PP1α_(7-330); assay: SPR; His6-PP1 captured on a Ni-NTA sensorchip, I3_(27-68) injected; pH = 6.5 (Table 1); two state fit; pH 6.5; conditions: both partners purified
# His6-PP1α_(7-330) [8] = target: T2, His6-PP1α_(7-330); assay: SPR; His6-PP1 captured on a Ni-NTA sensorchip, I3_(27-68) injected; pH = 7.5 (Table 1); two state fit; pH 7.5; conditions: both partners purified
# His6-PP1α_(7-330) C273S [9] = target: T4, His6-PP1α_(7-330) C273S; assay: SPR; His6-PP1 captured on a Ni-NTA sensorchip (NiHC200M), I3 variants injected; 25 °C; 20 mM Tris pH 8.0, 500 mM NaCl, 1 mM MnCl2, 0.5 mM TCEP, 0.05% Tween-20; one-to-one one state or one-to-one two state model; conditions: both partners purified
# His6-PP1α_(7-330) H66K = target: T5, His6-PP1α_(7-330) H66K (UniProt P62136 7-330, H66K); assay: as above; conditions: both partners purified
# T5 construct: Protein Phosphatase 1 alpha (PP1α), residues 7-330, H66K; also called PP1 H66K; PP1_(7-330) H66K; source: bacterial expression (E. coli) as previously described, purified (Ni-NTA, SEC)
# T5 sequence (P62136 7-330 H66K): as the sequence (P62136 7-330) above, with H60K counted along it
# His6-PP1α_(7-330) H248N = target: T6, His6-PP1α_(7-330) H248N (UniProt P62136 7-330, H248N); assay: as above; conditions: both partners purified
# T6 construct: Protein Phosphatase 1 alpha (PP1α), residues 7-330, H248N; also called PP1_(7-330) H248N; source: bacterial expression (E. coli) as previously described, purified (Ni-NTA, SEC)
# T6 sequence (P62136 7-330 H248N): as the sequence (P62136 7-330) above, with H242N counted along it
# His6-PP1α_(7-330) [10] = target: T2, His6-PP1α_(7-330); assay: as above; conditions: both partners purified; remark: listed apart in the source
binder,measurement,setting,value
"SLTIKLRKRKPEKKVEWTSDTVDNEHMGRRSSK (domain or fragment, human, UniProt O60927 27-59, looked up, also called I3 CCCdeletion; source: E. coli BL21 (DE3), purified (Ni-NTA, TEV cleavage, heat 95 °C, SEC); not shown: His6, N-terminal, cleaved; MBP, N-terminal, cleaved) [CCCdeletion: I327-59 (Δ60-68)]",koff,PP1α7-330 [1],0.0766 s⁻¹
same,kon,PP1α7-330 [1],210000 M⁻¹ s⁻¹
"SLTIKLRKRKPEKKVEWTSDTVDNEHMGRRSSK (domain or fragment, human, UniProt O60927 27-59, looked up, PPP1R11), human, residues 27-59; also called I3 CCC_(deletion) variant; I3_(27-68) CCC_(deletion); source: E. coli BL21 (DE3), purified (Ni-NTA, TEV, heat 95 °C, SEC); not shown: His6, N-terminal, cleaved; MBP, N-terminal, cleaved)","IC50 of PP1 inhibition (dephosphorylation of the H3pT3 peptide, released Pi)",His6-PP1α_(7-330) [2],422 nM
same,Kd,His6-PP1α_(7-330) [3],376 ± 47 nM
"SLTIKLRKRKPEKKVEWTSDTVDNEHMGRRSSK (domain or fragment, human, UniProt O60927 27-59, looked up, PPP1R11), human, residues 27-59; also called CCCdead: I327-59 (Δ60-62); I3 27-59 (CCC dead); source: E. coli BL21 (DE3), purified (Ni-NTA, TEV cleavage, heat, SEC); not shown: His6, N-terminal, cleaved; MBP, N-terminal, cleaved)",Kd,PP1α_(7-330),447 nM and 329 nM and 352 nM
same,koff,PP1α_(7-330),0.0749 s⁻¹ and 0.0798 s⁻¹ and 0.0752 s⁻¹ and 0.0766 s⁻¹
same,kon,PP1α_(7-330),168000 M⁻¹ s⁻¹ and 242000 M⁻¹ s⁻¹ and 213000 M⁻¹ s⁻¹ and 208000 M⁻¹ s⁻¹
SLTIKLRKRKPEKKVEWTSDTVDNEHMGRRSSKCCCIYEKPR (domain or fragment) [I327-68 (I3 PP1 interaction domain)],Supplementary Figure 5A: IC50 of PP1 inhibition by I3 27-68 (dephosphorylation of the H3pT3 peptide) in the presence of 1.3 mM DTT; I3 exchanged into buffer without 0.5 mM TCEP,PP1α7-330 [4],70 nM
"SLTIKLRKRKPEKKVEWTSDTVDNEHMGRRSSKCCCIYEKPR (domain or fragment, human, UniProt O60927 27-68, looked up, PPP1R11), human, residues 27-68; also called WT I3_(27-68); source: E. coli BL21 (DE3), purified (Ni-NTA, TEV, heat 95 °C, SEC); not shown: His6, N-terminal, cleaved; MBP, N-terminal, cleaved) [I3_(27-68) (I3 PP1 interaction domain)]","IC50 of PP1 inhibition (dephosphorylation of the H3pT3 peptide, released Pi)",His6-PP1α_(7-330) [2],75 nM
same,"IC50 of PP1 C273S inhibition (dephosphorylation of the H3pT3 peptide, released Pi; 1.33 mM DTT)",His6-PP1α_(7-330) C273S [5],85 nM
same,Kd,His6-PP1α_(7-330) [6],16.1 ± 1.1 nM
same,Kd,His6-PP1α_(7-330) [7],17 ± 0.8 nM
same,Kd,His6-PP1α_(7-330) [8],9 ± 0.6 nM
same,Kd,His6-PP1α_(7-330) [3],9.3 ± 1.1 nM
same,Kd,His6-PP1α_(7-330) C273S [9],16.1 ± 0.7 nM
same,Kd,His6-PP1α_(7-330) H66K,5.9 ± 0.6 nM
same,Kd,His6-PP1α_(7-330) H248N,6.6 ± 1.7 nM
"SLTIKLRKRKPEKKVEWTSDTVDNEHMGRRSSKSSCIYEKPR (domain or fragment, human, UniProt O60927 27-68, looked up, PPP1R11), human, residues 27-68; source: E. coli BL21 (DE3), purified (Ni-NTA, TEV, heat 95 °C, SEC); not shown: His6, N-terminal, cleaved; MBP, N-terminal, cleaved) [SSC: I3_(27-68) C60S/C61S]","IC50 of PP1 inhibition (dephosphorylation of the H3pT3 peptide, released Pi)",His6-PP1α_(7-330) [2],349 nM
same,Kd,His6-PP1α_(7-330) [10],86.6 nM
same,Kd,His6-PP1α_(7-330) [3],86.8 ± 3.8 nM
"SLTIKLRKRKPEKKVEWTSDTVDNEHMGRRSSKSSSIYEKPR (domain or fragment, human, UniProt O60927 27-68, looked up, PPP1R11), human, residues 27-68, C60S/C61S/C62S; also called I3_27-68_60SSS62; I3_(27-68) SSS; source: E. coli BL21 (DE3), purified (Ni-NTA, TEV cleavage, heat, SEC); not shown: His6, N-terminal, cleaved; MBP, N-terminal, cleaved) [SSS: I3_(27-68) C60S/C61S/C62S]",Kd,PP1α_(7-330),409 nM and 421 nM and 406 nM
same,koff,PP1α_(7-330),0.0719 s⁻¹ and 0.0774 s⁻¹ and 0.0728 s⁻¹ and 0.074 s⁻¹
same,kon,PP1α_(7-330),176000 M⁻¹ s⁻¹ and 184000 M⁻¹ s⁻¹ and 179000 M⁻¹ s⁻¹ and 180000 M⁻¹ s⁻¹
"SLTIKLRKRKPEKKVEWTSDTVDNEHMGRRSSKCCCAAEKPR (domain or fragment, human, UniProt O60927 27-68, looked up, PPP1R11), human, residues 27-68; also called I3_(27-68) IY; source: E. coli BL21 (DE3), purified (Ni-NTA, TEV, heat 95 °C, SEC); not shown: His6, N-terminal, cleaved; MBP, N-terminal, cleaved) [IY: I3_(27-68) I63A/Y64A]",Kd,His6-PP1α_(7-330) [3],15.6 ± 2.4 nM
"SLTIKLRKRKPEKKVEWTSDTVDNEHMGRRSSKCSCIYEKPR (domain or fragment, human, UniProt O60927 27-68, looked up, PPP1R11), human, residues 27-68, C61S; source: E. coli BL21 (DE3), purified (Ni-NTA, TEV cleavage, heat, SEC); not shown: His6, N-terminal, cleaved; MBP, N-terminal, cleaved) [CSC: I3_(27-68) C61S]",Kd,PP1α_(7-330),20.1 nM and 18.7 nM and 17.5 nM
"SLTIKLRKRKPEKKVEWTSDTVDNEHMGRRSSKSCSIYEKPR (domain or fragment, human, UniProt O60927 27-68, looked up, PPP1R11), human, residues 27-68, C60S/C62S; also called I3_27-68_SCS; source: E. coli BL21 (DE3), purified (Ni-NTA, TEV cleavage, heat, SEC); not shown: His6, N-terminal, cleaved; MBP, N-terminal, cleaved) [SCS: I3_(27-68) C60S/C62S]",Kd,PP1α_(7-330),45.5 nM and 63.4 nM and 53.1 nM
